Laboratory results reported in publication PMC10192418 (2023).

B1: linear peptide 3 [modified: 5(6)-carboxyfluorescein on the N-terminus; 5(6)-carboxyfluorescein on the N-terminus] / B-RCAL (BÜHLMANN recombinant calprotectin; His6-linker-S100A9-linker-S100A8) [human] (parent complex)
chain 1: RSPESVAFPMFQSHWYSG
chain 2: MTCKMSQLERNIETIINTFHQYSVKLGHPDTLNQGEFKELVRKDLQNFLKKENKNEKVIEHIMEDLDTNADKQLSFEEFIMLMARLTWASHEKMHEGDEGPGHHHKPGLGEGTPLEVLFQGPMLTELEKALNSIIDVYHKYSLIKGNFHAVYRDDLKKLLETECPQYIRKKGADVWFKELDINTDGAVNFQEFLILVIKMGVAAHKKSHEESHKE

Variants of: B1
Experiment: SPR; peptide injected at 500 nM; single measurement; calprotectin immobilized; read off a plot

response [RU]	Variant
~130	chain 1 RSPASVAFPMFQSHWYSG [chain 1 E4A]
